Results as given in publication PMC9307952, “Lipoate protein ligase B primarily recognizes the C8-phosphopantetheine arm of its donor substrate and weakly binds the acyl carrier protein” (The Journal of Biological Chemistry, 2022).

Substrate: CCCCCCCC(=O)SCCNC(=O)CCNC(=O)[C@H](O)C(C)(C)COP(=O)(O)OP(=O)(O)OC[C@H]1O[C@@H](n2cnc3c(N)ncnc32)[C@H](O)[C@@H]1OP(=O)(O)O
Assay: purified protein
Conditions: 5 μM LipB, 25 μM E. coli GcvH as acceptor, 0-160 μM C8-CoA, 50 mM Tris-HCl, 200 mM NaCl, pH 8.0, 30 °C

B1: E. coli LipB (EcLipB) (Escherichia coli K-12) (protein)
chain: MYQDKILVRQLGLQPYEPISQAMHEFTDTRDDSTLDEIWLVEHYPVFTQGQAGKAEHILMPGDIPVIQSDRGGQVTYHGPGQQVMYVLLNLKRRKLGVRELVTLLEQTVVNTLAELGIEAHPRADAPGVYVGEKKICSLGLRIRRGCSFHGLALNVNMDLSPFLRINPCGYAGMEMAKISQWKPEATTNNIAPRLLENILALLNNPDFEYITA
B1 gave a Km of 12.24 ± 0.79 µM, a Vmax of 1.08 µmol/min and a kcat of 0.00367 s⁻¹.
